# Test results: patent publication US20260248972A1, “DUAL RECEPTOR TARGETING RADIOLIGANDS AND USES THEREOF RELATED APPLICATIONS” (priority 2022, published 2026)
# Assay: in vivo
# Details: BALB/c nude, mouse, in vivo, iv, total radioactivity
# How it was run: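 Compounds labelled with ^177Lu in 0.5 M NaOAc pH 4.5 at 95° C for 15 min, then used directly or diluted in PBS with 3 mg/mL ascorbate. BALB/c nude mice bore subcutaneous AR42J flank xenografts (0.05-0.50 g). Organs excised at 4, 24 and 72 h post-injection and γ-counted for % ID and % ID/g.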
smiles,measurement,setting,value
"CC(C)(C)C(=O)CN1C(=O)[C@H](NC(=O)Nc2cccc(C(=O)N[C@@H](CCC(=O)N[C@@H](CCC(=O)N[C@@H](CCC(=O)N[C@@H](CCCCNC(=O)COCCOCCNC(=O)COCCOCCNC(=O)CCC(C(=O)O)N3CCN(CC(=O)O)CCN(CC(=O)O)CCN(CC(=O)O)CC3)C(N)=O)C(=O)O)C(=O)O)C(=O)O)c2)CN(C2CCCCC2)c2ccccc21 (stereo partly drawn) [^177Lu-C-4, metal not drawn, reference compound]",tissue uptake at 4 h,% ID/g Blood,0.09 %ID/g
same,tissue uptake at 24 h,% ID/g Blood,0.01 %ID/g
same,tissue uptake at 4 h,% ID/g Femur,0.04 %ID/g
same,tissue uptake at 24 h,% ID/g Femur,0.04 %ID/g
same,tissue uptake at 4 h,% ID/g Heart,0.07 %ID/g
same,tissue uptake at 24 h,% ID/g Heart,0.03 %ID/g
same,tissue uptake at 4 h,% ID/g Intestine,0.12 %ID/g
same,tissue uptake at 24 h,% ID/g Intestine,0.04 %ID/g
same,tissue uptake at 4 h,% ID/g Kidney,3.38 %ID/g
same,tissue uptake at 24 h,% ID/g Kidney,1.32 %ID/g
same,tissue uptake at 4 h,% ID/g Liver,0.17 %ID/g
same,tissue uptake at 24 h,% ID/g Liver,0.11 %ID/g
same,tissue uptake at 4 h,% ID/g Lung,0.07 %ID/g
same,tissue uptake at 24 h,% ID/g Lung,0.03 %ID/g
same,tissue uptake at 4 h,% ID/g Muscle,0.02 %ID/g
same,tissue uptake at 24 h,% ID/g Muscle,0.01 %ID/g
same,tissue uptake at 4 h,% ID/g Pancreas,0.03 %ID/g
same,tissue uptake at 24 h,% ID/g Pancreas,0.01 %ID/g
same,tissue uptake at 4 h,% ID/g Spleen,0.06 %ID/g
same,tissue uptake at 24 h,% ID/g Spleen,0.02 %ID/g
same,tissue uptake at 4 h,% ID/g Stomach,0.06 %ID/g
same,tissue uptake at 24 h,% ID/g Stomach,0.03 %ID/g
same,tissue uptake at 4 h,% ID/g Tumor,4.69 %ID/g
same,tissue uptake at 24 h,% ID/g Tumor,1.44 %ID/g
"C[C@@H](O)[C@H](NC(=O)[C@@H]1CSSC[C@H](NC(=O)[C@@H](Cc2ccccc2)NC(=O)[C@H](CCCCNC(=O)c2cccc(NC(=O)N[C@@H]3CN(C4CCCCC4)c4ccccc4N(CC(=O)C(C)(C)C)C3=O)c2)NC(=O)COCCOCCNC(=O)CN2CCN(CC(=O)O)CCN(CC(=O)O)CCN(CC(=O)O)CC2)C(=O)N[C@@H](Cc2ccc(O)cc2)C(=O)N[C@H](Cc2c[nH]c3ccccc23)C(=O)N[C@@H](CCCCN)C(=O)N[C@@H]([C@@H](C)O)C(=O)N1)C(=O)O [^177Lu-I-35, metal not drawn]",tissue uptake at 4 h,% ID/g Adrenal gland,2.8 %ID/g
same,tissue uptake at 24 h,% ID/g Adrenal gland,2.3 %ID/g
same,tissue uptake at 72 h,% ID/g Adrenal gland,0.34 %ID/g
same,tissue uptake at 4 h,% ID/g Blood,1.98 %ID/g
same,tissue uptake at 24 h,% ID/g Blood,0.11 %ID/g
same,tissue uptake at 72 h,% ID/g Blood,0.03 %ID/g
same,tissue uptake at 4 h,% ID/g Fat,3.49 %ID/g
same,tissue uptake at 24 h,% ID/g Fat,0.75 %ID/g
same,tissue uptake at 72 h,% ID/g Fat,0.41 %ID/g
same,tissue uptake at 4 h,% ID/g Femur,1.01 %ID/g
same,tissue uptake at 24 h,% ID/g Femur,0.52 %ID/g
same,tissue uptake at 72 h,% ID/g Femur,0.21 %ID/g
same,tissue uptake at 4 h,% ID/g Heart,1.26 %ID/g
same,tissue uptake at 24 h,% ID/g Heart,0.56 %ID/g
same,tissue uptake at 72 h,% ID/g Heart,0.25 %ID/g
same,tissue uptake at 4 h,% ID/g Intestine,2.36 %ID/g
same,tissue uptake at 24 h,% ID/g Intestine,0.84 %ID/g
same,tissue uptake at 72 h,% ID/g Intestine,0.72 %ID/g
same,tissue uptake at 4 h,% ID/g Kidney,18.5 %ID/g
same,tissue uptake at 24 h,% ID/g Kidney,6.06 %ID/g
same,tissue uptake at 72 h,% ID/g Kidney,4.51 %ID/g
same,tissue uptake at 4 h,% ID/g Liver,18.1 %ID/g
same,tissue uptake at 24 h,% ID/g Liver,5.06 %ID/g
same,tissue uptake at 72 h,% ID/g Liver,2.41 %ID/g
same,tissue uptake at 4 h,% ID/g Lung,3.44 %ID/g
same,tissue uptake at 24 h,% ID/g Lung,1.73 %ID/g
same,tissue uptake at 72 h,% ID/g Lung,0.66 %ID/g
same,tissue uptake at 4 h,% ID/g Muscle,0.42 %ID/g
same,tissue uptake at 24 h,% ID/g Muscle,0.12 %ID/g
same,tissue uptake at 72 h,% ID/g Muscle,0.03 %ID/g
same,tissue uptake at 4 h,% ID/g Pancreas,5.03 %ID/g
same,tissue uptake at 24 h,% ID/g Pancreas,0.96 %ID/g
same,tissue uptake at 72 h,% ID/g Pancreas,0.34 %ID/g
same,tissue uptake at 4 h,% ID/g Spleen,0.82 %ID/g
same,tissue uptake at 24 h,% ID/g Spleen,0.47 %ID/g
same,tissue uptake at 72 h,% ID/g Spleen,0.28 %ID/g
same,tissue uptake at 4 h,% ID/g Stomach,6.98 %ID/g
same,tissue uptake at 24 h,% ID/g Stomach,3.09 %ID/g
same,tissue uptake at 72 h,% ID/g Stomach,2.29 %ID/g
same,tissue uptake at 4 h,% ID/g Tumor,27.2 %ID/g
same,tissue uptake at 24 h,% ID/g Tumor,17.8 %ID/g
same,tissue uptake at 72 h,% ID/g Tumor,18 %ID/g
"C[C@@H](O)[C@H](NC(=O)[C@@H]1CSSC[C@H](NC(=O)[C@@H](Cc2ccccc2)NC(=O)[C@H](CCCCNC(=O)COCCOCCNC(=O)c2cccc(NC(=O)N[C@@H]3CN(C4CCCCC4)c4ccccc4N(CC(=O)C(C)(C)C)C3=O)c2)NC(=O)CN2CCN(CC(=O)O)CCN(CC(=O)O)CCN(CC(=O)O)CC2)C(=O)N[C@@H](Cc2ccc(O)cc2)C(=O)N[C@H](Cc2c[nH]c3ccccc23)C(=O)N[C@@H](CCCCN)C(=O)N[C@@H]([C@@H](C)O)C(=O)N1)C(=O)O [^177Lu-I-36, metal not drawn]",tissue uptake at 4 h,% ID/g Adrenal gland,2.48 %ID/g
same,tissue uptake at 24 h,% ID/g Adrenal gland,1.67 %ID/g
same,tissue uptake at 72 h,% ID/g Adrenal gland,0.87 %ID/g
same,tissue uptake at 4 h,% ID/g Blood,2.09 %ID/g
same,tissue uptake at 24 h,% ID/g Blood,0.7 %ID/g
same,tissue uptake at 72 h,% ID/g Blood,0.21 %ID/g
same,tissue uptake at 4 h,% ID/g Fat,3.32 %ID/g
same,tissue uptake at 24 h,% ID/g Fat,2.39 %ID/g
same,tissue uptake at 72 h,% ID/g Fat,1.12 %ID/g
same,tissue uptake at 4 h,% ID/g Femur,0.79 %ID/g
same,tissue uptake at 24 h,% ID/g Femur,0.76 %ID/g
same,tissue uptake at 72 h,% ID/g Femur,0.59 %ID/g
same,tissue uptake at 4 h,% ID/g Heart,1.36 %ID/g
same,tissue uptake at 24 h,% ID/g Heart,0.85 %ID/g
same,tissue uptake at 72 h,% ID/g Heart,0.47 %ID/g
same,tissue uptake at 4 h,% ID/g Intestine,2.27 %ID/g
same,tissue uptake at 24 h,% ID/g Intestine,1.29 %ID/g
same,tissue uptake at 72 h,% ID/g Intestine,1.39 %ID/g
same,tissue uptake at 4 h,% ID/g Kidney,20.7 %ID/g
same,tissue uptake at 24 h,% ID/g Kidney,18.4 %ID/g
same,tissue uptake at 72 h,% ID/g Kidney,14.2 %ID/g
same,tissue uptake at 4 h,% ID/g Liver,12 %ID/g
same,tissue uptake at 24 h,% ID/g Liver,7.22 %ID/g
same,tissue uptake at 72 h,% ID/g Liver,3.99 %ID/g
same,tissue uptake at 4 h,% ID/g Lung,2.89 %ID/g
same,tissue uptake at 24 h,% ID/g Lung,1.72 %ID/g
same,tissue uptake at 72 h,% ID/g Lung,1.36 %ID/g
same,tissue uptake at 4 h,% ID/g Muscle,0.41 %ID/g
same,tissue uptake at 24 h,% ID/g Muscle,0.25 %ID/g
same,tissue uptake at 72 h,% ID/g Muscle,0.13 %ID/g
same,tissue uptake at 4 h,% ID/g Pancreas,5.66 %ID/g
same,tissue uptake at 24 h,% ID/g Pancreas,3.34 %ID/g
same,tissue uptake at 72 h,% ID/g Pancreas,1.28 %ID/g
same,tissue uptake at 4 h,% ID/g Spleen,0.97 %ID/g
same,tissue uptake at 24 h,% ID/g Spleen,0.85 %ID/g
same,tissue uptake at 72 h,% ID/g Spleen,0.36 %ID/g
same,tissue uptake at 4 h,% ID/g Stomach,6.6 %ID/g
same,tissue uptake at 24 h,% ID/g Stomach,5.96 %ID/g
same,tissue uptake at 72 h,% ID/g Stomach,3.8 %ID/g
same,tissue uptake at 4 h,% ID/g Tumor,45.1 %ID/g
same,tissue uptake at 24 h,% ID/g Tumor,35.2 %ID/g
same,tissue uptake at 72 h,% ID/g Tumor,36.4 %ID/g
